Experiment [1] concerns the target CRL5^Ozz, reconstituted five-component complex (Ozz–EloBC + Cul5–Rbx1) (human) (UniProt Q9BR09). Put plainly: SEC; purified Ozz–EloBC and Cul5–Rbx1 mixed 1:1; Superose 6 10/300GL, 50 mM Tris pH 7.6, 150 mM NaCl, 0.3 ml/min; fractions on SDS gels stained with SYPRO Ruby. A general note: Size exclusion chromatography separates by hydrodynamic size, large species first.

Experiment [2] has the same target. Put plainly: co-sedimentation; 15–45% glycerol gradient ultracentrifugation with micro-fractionation; 20 mM Tris–HCl pH 7.6, 150 mM NaCl; 55,000 r.p.m., 8 h (also 12 h), 4 °C; fractions on SDS gels stained with SYPRO Ruby, densitometry.
Experiment [3] has the same target. Kind of experiment: AUC; sedimentation velocity, 50,000 rpm, 20 °C, interference optics; 10 mM sodium phosphate, 1.8 mM potassium phosphate pH 7.2, 137 mM NaCl, 0.27 mM KCl; c(s) and two-dimensional c(s,f/f0) analysis of the same data; co-purified subcomplexes alone (Ozz–EloBC 0.35 or 1.00 mg/ml, Cul5–Rbx1 0.21 mg/ml) and their 1:1 mixture (0.75 mg/ml).
Experiment [4] addresses Ozz–EloBC subcomplex (human) (UniProt Q9BR09). Described as above.
Experiment [5] shares this target. Kind of experiment: AUC; sedimentation velocity, isotherm of signal-weighted-average s (3 to 7 S) of Ozz–EloBC at 1.8 to 13.3 μM; reversible monomer–dimer self-association model (dimer to monomers of the 1:1:1 complex), SEDPHAT; same buffer, 20 °C.

pKd: −log10 of the molar value.

Sequence of Cul5–Rbx1 subcomplex (Q93034 whole entry): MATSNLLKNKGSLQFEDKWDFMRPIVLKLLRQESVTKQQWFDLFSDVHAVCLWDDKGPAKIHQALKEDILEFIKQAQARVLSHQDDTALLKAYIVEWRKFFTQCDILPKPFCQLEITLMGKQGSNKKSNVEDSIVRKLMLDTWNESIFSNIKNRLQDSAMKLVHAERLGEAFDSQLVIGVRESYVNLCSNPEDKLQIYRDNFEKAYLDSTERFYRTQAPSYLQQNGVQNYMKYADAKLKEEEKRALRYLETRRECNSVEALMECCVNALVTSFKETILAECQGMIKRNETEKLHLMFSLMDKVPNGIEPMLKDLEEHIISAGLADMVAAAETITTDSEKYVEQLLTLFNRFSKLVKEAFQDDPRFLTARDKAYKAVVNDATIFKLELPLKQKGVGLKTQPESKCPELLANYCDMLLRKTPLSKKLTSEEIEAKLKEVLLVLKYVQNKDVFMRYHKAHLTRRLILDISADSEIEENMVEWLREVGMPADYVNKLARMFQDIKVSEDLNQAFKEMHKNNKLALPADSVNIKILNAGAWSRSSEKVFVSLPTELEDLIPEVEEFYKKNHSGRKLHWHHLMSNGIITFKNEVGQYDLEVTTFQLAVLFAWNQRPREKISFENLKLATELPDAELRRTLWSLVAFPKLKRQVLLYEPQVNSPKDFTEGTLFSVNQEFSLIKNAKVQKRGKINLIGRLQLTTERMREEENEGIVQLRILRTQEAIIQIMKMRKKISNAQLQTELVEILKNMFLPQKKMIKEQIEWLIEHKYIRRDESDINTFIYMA
Sequence of Cul5–Rbx1 subcomplex (P62877 whole entry): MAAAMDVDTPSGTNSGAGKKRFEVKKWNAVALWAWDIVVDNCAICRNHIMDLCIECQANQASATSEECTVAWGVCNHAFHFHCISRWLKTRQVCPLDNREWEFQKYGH

Regarding “CRL5^Ozz, reconstituted five-component complex (Ozz–EloBC + Cul5–Rbx1) (from UniProt Q9BR09 1-285; Q15370 1-118; Q15369 1-112; Q93034 1-780; P62877 1-108)”, in experiment [1], the stoichiometry N worked out at 2. Moreover, the stoichiometry N in experiment [2] was found to be 2. Besides, in experiment [3], the percent of total protein in the dimer peak, c(s) amounted to 5%; the percent of total protein in the dimer peak, c(s,f/f0) stood at 8%; the stoichiometry N came out at 2.
Regarding “Cul5–Rbx1 subcomplex (from UniProt Q93034 1-780; P62877 1-108)”, in experiment [4], the percent of total protein in the peak of the 1:1:1:1:1 complex, c(s) is 55%; the percent of total protein in the peak of the 1:1:1:1:1 complex, c(s,f/f0) was 48%; the stoichiometry N amounted to 1.
In experiment [5], “Ozz–EloBC subcomplex (from UniProt Q9BR09 1-285; Q15370 1-118; Q15369 1-112)” showed a pKd of 6.15. Also, in experiment [4], the percent of total protein in the dimer peak, c(s) came to 53%; the percent of total protein in the dimer peak, c(s,f/f0) was 52%; the stoichiometry N stood at 2.

The stoichiometry N is the number of molecules, sites or subunits per partner or assembly. What is called pKd is −log10 of the Kd, conventionally taken in molar units.
